These are literature values, as cited in publication PMC2725201.

Data set [1] has as its target C3a C3a (Homo sapiens) (UniProt P01024).
Data set [2] has as its target C5a C5a (Homo sapiens) (UniProt P01031).
For data set [3], the target named is C5a-desArg C5a-desArg (Homo sapiens) (UniProt P01031).
The target in data set [4] is C5a C5a (Homo sapiens) (UniProt P01031). The source holds these as a separate data set.

Read-outs that look alike come from different tables or passages of the source.

Sequence of C5a C5a (Homo sapiens) (P01031 675-754): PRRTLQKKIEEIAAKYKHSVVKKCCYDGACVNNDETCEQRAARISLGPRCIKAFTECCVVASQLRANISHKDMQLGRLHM
Sequence of C5aR (P21730 whole entry): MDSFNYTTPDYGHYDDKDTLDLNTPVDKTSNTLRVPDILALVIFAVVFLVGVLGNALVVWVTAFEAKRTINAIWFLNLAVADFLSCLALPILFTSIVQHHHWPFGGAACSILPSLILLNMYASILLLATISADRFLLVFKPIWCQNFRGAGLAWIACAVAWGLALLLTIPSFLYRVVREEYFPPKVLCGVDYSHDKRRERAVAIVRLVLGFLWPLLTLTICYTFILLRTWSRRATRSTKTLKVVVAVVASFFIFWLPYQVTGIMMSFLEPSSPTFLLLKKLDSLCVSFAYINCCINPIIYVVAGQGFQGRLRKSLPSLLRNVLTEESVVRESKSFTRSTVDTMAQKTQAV
Sequence of C3a C3a (Homo sapiens) (P01024 669-751): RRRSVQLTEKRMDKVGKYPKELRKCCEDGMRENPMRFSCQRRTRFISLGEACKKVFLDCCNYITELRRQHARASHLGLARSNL
Sequence of C5L2 (Q9P296 whole entry): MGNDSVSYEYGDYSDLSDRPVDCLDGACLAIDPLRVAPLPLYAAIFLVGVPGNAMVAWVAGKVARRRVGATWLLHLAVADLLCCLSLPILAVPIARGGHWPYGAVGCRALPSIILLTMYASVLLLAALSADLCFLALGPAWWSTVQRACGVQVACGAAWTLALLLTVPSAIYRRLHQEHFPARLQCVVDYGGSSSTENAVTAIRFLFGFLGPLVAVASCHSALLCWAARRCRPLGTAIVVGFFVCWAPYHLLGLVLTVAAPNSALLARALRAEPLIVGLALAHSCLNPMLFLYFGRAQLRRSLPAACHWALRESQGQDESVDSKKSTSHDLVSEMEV
Sequence of C5a-desArg C5a-desArg (Homo sapiens) (P01031 678-750): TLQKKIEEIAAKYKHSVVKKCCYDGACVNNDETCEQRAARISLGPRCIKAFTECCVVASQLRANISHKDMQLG
Sequence of C3aR (Q16581 whole entry): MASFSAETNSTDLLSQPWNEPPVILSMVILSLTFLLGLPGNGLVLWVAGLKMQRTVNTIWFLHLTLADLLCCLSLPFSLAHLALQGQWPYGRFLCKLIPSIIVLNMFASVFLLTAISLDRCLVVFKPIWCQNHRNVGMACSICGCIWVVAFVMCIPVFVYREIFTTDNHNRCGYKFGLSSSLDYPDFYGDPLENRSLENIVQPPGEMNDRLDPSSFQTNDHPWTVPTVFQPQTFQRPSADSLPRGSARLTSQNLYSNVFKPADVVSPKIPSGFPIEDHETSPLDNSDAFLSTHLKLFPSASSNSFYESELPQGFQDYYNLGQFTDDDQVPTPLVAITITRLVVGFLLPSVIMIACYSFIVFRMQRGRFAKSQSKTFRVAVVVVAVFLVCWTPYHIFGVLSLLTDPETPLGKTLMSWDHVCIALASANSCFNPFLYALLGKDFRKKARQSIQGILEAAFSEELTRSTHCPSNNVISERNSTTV

As usually defined, the Kd is the constant that tells how readily two partners part at equilibrium. On to C3aR (from UniProt Q16581), for which the Kd in data set [1] was 1 nM.
As to C5L2 (from UniProt Q9P296), the Kd in data set [2] is 2.5 nM.
For C5aR (from UniProt P21730), the dissociation constant (Kd) was 660 nM in data set [3] and 1 nM in data set [4].
